According to publication doi:10.1101/2025.10.22.683608:
Read-outs that look alike come from different tables or passages of the source.

How the values were obtained:
Experiment in all cases: SPR
[1] = target: T1, ADAR1-Zα (UniProt P55265 134-198)
T1 sequence: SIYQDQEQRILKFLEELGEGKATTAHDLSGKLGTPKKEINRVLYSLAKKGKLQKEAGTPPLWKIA

[2] = target: T1, ADAR1-Zα; remark: listed apart in the source
[3] = target: T2, ZBP1-Zα (UniProt Q9H171 8-70)
T2 sequence: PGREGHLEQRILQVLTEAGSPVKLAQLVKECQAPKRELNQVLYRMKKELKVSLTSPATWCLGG

B1: A2 (ssDNA)
DNA: TTCAGCACTCCACGCATAGCCGGCCAGCCAAGTCCCCGCTCCTCACGGCCCCCCGCCCTATGCGTGCTACCGTGAA
With B1 the Kd [1] was 25.7 ± 6.2 nM.

B2: A10 (ssDNA)
DNA: TTCAGCACTCCACGCATAGCACACGACCGAACTCGCCAACCCTGTCGTCCCGCCCGCCTATGCGTGCTACCGTGAA
Binder B2 has a Kd [1] of 99.2 ± 25.3 nM.

B3: A13 (ssDNA)
DNA: TTCAGCACTCCACGCATAGCCCGGCCGACGGAACAATCCGTGTTCACTCGTCGCACCCTATGCGTGCTACCGTGAA
Binder B3 has a Kd [1] of 29.5 ± 7.6 nM.

B4: A7 (ssDNA)
DNA: TTCAGCACTCCACGCATAGCGACGGGCCAACACCCCAGGTTCGCGTCCCCGCCTGCCCTATGCGTGCTACCGTGAA
B4 gave a Kd [1] of 27.7 ± 3.1 nM.

B5: A15 (ssDNA)
DNA: TTCAGCACTCCACGCATAGCCCGGCGTGAAGACCCGTGTGCTTTCAGGTCGCCCGCCCTATGCGTGCTACCGTGAA
Binder B5 has a Kd [1] of 103 ± 17 nM.

B6: A3 (ssDNA)
DNA: TTCAGCACTCCACGCATAGCCGACCCGCGCCGCATTCACTGCCTACTGCCCGCCGCCCTATGCGTGCTACCGTGAA
For B6, the Kd [1] was 16.1 ± 3.7 nM.

B7: A12 (ssDNA)
DNA: TTCAGCACTCCACGCATAGCACACGCGCGAAGACCCCCACCGATCCGGCCGCTCGTCCTATGCGTGCTACCGTGAA
For B7, the Kd [1] was 104 ± 29.2 nM.

B8: A9 (ssDNA)
DNA: TTCAGCACTCCACGCATAGCCGACCACCCCCCCGACCCGGTGTCACTCCCCGCGCCCCTATGCGTGCTACCGTGAA
B8 was tested, and the Kd [1] was 26.5 ± 5.5 nM.

B9: A11 (ssDNA)
DNA: TTCAGCACTCCACGCATAGCCCGGTGCCGACCGAACCACCGTTGCCCTCCGCATGCCCTATGCGTGCTACCGTGAA
Binder B9 has a Kd [1] of 104 ± 10 nM.

B10: A6 (ssDNA)
DNA: TTCAGCACTCCACGCATAGCCCGCACCCAGCCGCGACTGCCCCCTGGTTCGGCCCGCCTATGCGTGCTACCGTGAA
With B10 the Kd [1] was 20.2 ± 2.2 nM.

B11: A8 (ssDNA)
DNA: TTCAGCACTCCACGCATAGCCCGCCACCACCAATCCTCACACTAGTCCGGCCCGGTCCTATGCGTGCTACCGTGAA
With B11 the Kd [1] was 99.8 ± 24.6 nM.

B12: A14 (ssDNA)
DNA: TTCAGCACTCCACGCATAGCACGCCGCCGAAGCAAACCCACGTCCTCGCCCACGGCCCTATGCGTGCTACCGTGAA
B12 gave a Kd [1] of 96.7 ± 11.4 nM.

B13: A1 (ssDNA)
DNA: TTCAGCACTCCACGCATAGCCGGACGCGCCCCTCTTCCTTGTGTGCTCTCGCCCGCCCTATGCGTGCTACCGTGAA
With B13 the Kd [1] was 31.7 ± 5 nM.

B14: A16 (ssDNA)
DNA: TTCAGCACTCCACGCATAGCACACCGCCCCCCTCTACTCGGCACACTCGCCCGCCCCTATGCGTGCTACCGTGAA
In the case of B14, the Kd [1] is reported as 103 ± 11.9 nM.

B15: A5 (ssDNA)
DNA: TTCAGCACTCCACGCATAGCCCGCCCCCCGCTACTCCCCTCCTGAGTTGCCGTCGCCCTATGCGTGCTACCGTGAA
B15 gave a Kd [1] of 2 ± 0.3 nM.

B16: A4 (ssDNA)
DNA: TTCAGCACTCCACGCATAGCACGCCCGCCACCCCCTCTCCTGGCCATCCGCGCACACCTATGCGTGCTACCGTGAA
Binder B16 has a Kd [1] of 2.1 ± 0.4 nM, a Kd [2] of 1.8 nM and a Kd [3] of 255 nM.
